The text below walks through data of patent US20120184718A1.

The target in this test is human FAS polypeptide (human) (UniProt P25445). In words: cell-based or functional assay.
UniProt P25445, sequence (P25445 26-335 limits assumed): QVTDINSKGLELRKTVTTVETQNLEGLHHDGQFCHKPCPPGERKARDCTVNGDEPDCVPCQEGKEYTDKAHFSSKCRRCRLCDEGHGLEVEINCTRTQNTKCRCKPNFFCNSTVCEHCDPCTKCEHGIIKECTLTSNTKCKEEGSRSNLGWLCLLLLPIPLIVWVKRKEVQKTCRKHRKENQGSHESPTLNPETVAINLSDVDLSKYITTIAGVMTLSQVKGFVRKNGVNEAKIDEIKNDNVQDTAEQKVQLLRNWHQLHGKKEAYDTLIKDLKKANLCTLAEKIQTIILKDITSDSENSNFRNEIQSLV

The substance HFE7A IgG (antibody) yielded an apoptosis (DNA fragmentation), U87-MG cells, 24 hours, cross-linked antibody (fold of cross-linked ApomAb) of 2.
